Square brackets hold non-standard residues; d marks the D form. Ends that are not written are not given here. Dmt = Cc1cc(O)cc(C)c1C[C@H](N)C(=O)O
B1: CM-56 (peptide)
peptide: [Dmt]PFFQFQFK-NH2
modifications: N-terminus assumed
SMILES: Cc1cc(O)cc(C)c1C[C@H](N)C(=O)N1CCC[C@H]1C(=O)N[C@@H](Cc1ccccc1)C(=O)N[C@@H](Cc1ccccc1)C(=O)N[C@@H](CCC(N)=O)C(=O)N[C@@H](Cc1ccccc1)C(=O)N[C@@H](CCC(N)=O)C(=O)N[C@@H](Cc1ccccc1)C(=O)N[C@@H](CCCCN)C(N)=O
B2: CM-58 (peptide)
peptide: [Dmt]PWFQFQFK-NH2
modifications: N-terminus assumed
SMILES: Cc1cc(O)cc(C)c1C[C@H](N)C(=O)N1CCC[C@H]1C(=O)N[C@@H](Cc1c[nH]c2ccccc12)C(=O)N[C@@H](Cc1ccccc1)C(=O)N[C@@H](CCC(N)=O)C(=O)N[C@@H](Cc1ccccc1)C(=O)N[C@@H](CCC(N)=O)C(=O)N[C@@H](Cc1ccccc1)C(=O)N[C@@H](CCCCN)C(N)=O

Legend:
Assay in all cases: binding test (Ki), method not described
[1] = molecular target: KOR
[2] = molecular target: MOR
Chain of MOR (P35372 whole entry): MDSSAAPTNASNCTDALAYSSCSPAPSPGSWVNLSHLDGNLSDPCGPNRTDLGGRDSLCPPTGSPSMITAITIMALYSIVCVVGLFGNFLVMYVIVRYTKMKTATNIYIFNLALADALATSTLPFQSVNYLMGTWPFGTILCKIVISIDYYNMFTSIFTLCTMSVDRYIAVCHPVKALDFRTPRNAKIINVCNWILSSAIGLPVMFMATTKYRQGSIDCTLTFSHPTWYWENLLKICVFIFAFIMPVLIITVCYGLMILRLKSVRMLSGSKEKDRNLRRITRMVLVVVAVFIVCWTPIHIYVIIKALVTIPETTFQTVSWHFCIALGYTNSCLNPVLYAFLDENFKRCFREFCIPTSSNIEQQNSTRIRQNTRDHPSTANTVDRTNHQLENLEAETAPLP

[3] = molecular target: DOR

Binder	Ki [1]	Ki [2]	Ki [3]
B1	337 nM	65 nM	176 nM
B2	120 nM	7.5 nM	15 nM

Reference: patent publication US20200246472A1
